Reference: patent US20240254229A1 (Molecular Partners, published 2024)

T1: human scCD3εγ (scCD3εγ_Avi-Bio) (human, biotin on the C-terminal Avi-tag (in vitro, BirA) where the biotinylated form was used)
T1 construct: Used for all SPR and HTRF results on human CD3; also called recombinant human CD3; human CD3
T1 chain: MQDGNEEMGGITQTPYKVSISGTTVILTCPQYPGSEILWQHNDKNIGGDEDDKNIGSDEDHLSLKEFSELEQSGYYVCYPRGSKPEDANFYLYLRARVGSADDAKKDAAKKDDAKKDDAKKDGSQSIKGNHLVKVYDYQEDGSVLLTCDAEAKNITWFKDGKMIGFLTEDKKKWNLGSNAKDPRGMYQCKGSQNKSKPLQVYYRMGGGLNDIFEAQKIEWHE

T2: biotinylated extracellular domain of human CD123 (SEQ ID NO: 88), Fc and Avi tagged (human, UniProt P26951 19-303, biotinylated with BirA-GST (Avi tag))
T2 construct: also called hCD123
T2 sequence: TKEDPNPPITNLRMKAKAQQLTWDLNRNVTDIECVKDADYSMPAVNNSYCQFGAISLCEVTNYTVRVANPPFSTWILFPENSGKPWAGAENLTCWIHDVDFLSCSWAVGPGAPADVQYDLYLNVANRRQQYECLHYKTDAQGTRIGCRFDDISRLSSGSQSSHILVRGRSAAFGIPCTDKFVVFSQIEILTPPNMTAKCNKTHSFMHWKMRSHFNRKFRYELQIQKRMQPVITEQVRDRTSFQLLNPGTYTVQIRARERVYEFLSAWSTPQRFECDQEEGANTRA

T3: extracellular domain of human CD70 (SEQ ID NO: 89), hCD70-Fc-trimer, ACRO Biosystems (human, UniProt P32970 52-193, chemically biotinylated where the biotinylated form was used)
T3 construct: also called human CD70-Fc-trimer; Bio.CD70
T3 sequence: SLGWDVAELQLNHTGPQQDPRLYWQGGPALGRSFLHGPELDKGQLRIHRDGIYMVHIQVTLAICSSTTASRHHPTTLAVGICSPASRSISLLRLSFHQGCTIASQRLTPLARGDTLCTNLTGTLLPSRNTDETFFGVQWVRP


Columns and labels:
[1] = biological target: T1, human scCD3εγ (scCD3εγ_Avi-Bio); assay: SPR, set-up not described
human serum albumin = biological target: T4, human serum albumin (human, UniProt P02768 25-609); assay: SPR, set-up not described
T4 construct: also called HSA; SA

[2] = biological target: T5, Molm-13 N1 tumor cells (carrying CD123, CD33 and CD70) (human, UniProt P20138 18-364; P26951 19-378; P32970 1-193); assay: flow cytometry on Molm-13 N1 cells, 20 uM HSA
T5 construct: whole, on cells; Not a complex: three separate antigens on one cell; also called Molm-13 N1 cells
Method: The determination of binding of several multispecific proteins to tumor cells was performed by Fluorescence Activated Cell Sorting (FACS) flow cytometry. Therefore, tumor cells (Molm-13 N1), were seeded at 100′000 cells per well in a 96 well plate. DARPin® protein #56, DARPin® protein #57, DARPin® protein #58, DARPin® protein #59, DARPin® protein #60, DARPin® protein #61 and DARPin® protein #62 were titrated down starting at 100 nM in 1:5 dilution ratio. Tumor cells were resuspended with diluted DARPin® proteins and incubated 60 minutes at 4° C. The assay was performed in PBS including 2% fetal bovine serum and human serum albumin 20 uM (HSA). After washing twice with Phosphate Buffer saline (PBS), DARPin® protein specific tumor cell binding was detected by adding unlabelled primary […] (anti-rabbit 1-1-1 antibody, CePower) at 2 ug/ml. An incubation step of at least 30 minutes at 4° C. followed. Afterwards, cells were washed with PBS and a secondary anti-rabbit antibody labelled with Alexa Fluor 647 antibody (ThermoFisher) at 2 ug/ml was added. The same incubation conditions applied. Finally, the cells were washed twice and resuspended in Cytofix fixation buffer (BD Biosciences) for 15 min at room temperature (RT). Median fluorescence intensities (MFI) of Alexa Fluor 647 DARPin® labelled cells were measured by Attune NxT (Thermo Fisher) using FlowJo software for analyses and GraphPad Prism 8 for data plotting.

[3] = biological target: T6, biotinylated extracellular domain of human CD33 (SEQ ID NO: 87), Fc and Avi tagged (human, UniProt P20138 18-259, biotinylated with BirA-GST (Avi tag)); assay: SPR (ProteOn), DARPin immobilized, hCD33 as analyte
T6 construct: also called hCD33; human target hCD33
Method: For measuring the interaction with human CD33, DARPin® protein #56 and DARPin® protein #57 were diluted in 10 mM NaOAc pH 4.0 and immobilized on an NHS/EDC activated HC200M sensorchip (XanTec bioanalytics GmbH) to a level of around 1000 resonance units (RU) (SMA555) or 1400 Rus (PSC466) using a ProteOn (BioRad). The surface was deactivated using Ethanolamine. The interaction of the tested proteins and human target hCD33 (SEQ ID NO:87) was then measured by injecting 400 μl running buffer (PBS, pH 7.4 containing 0.005% Tween 200) containing three-fold serial dilutions of human target hCD33 covering a concentration range between 66.7 nM and 0.82 nM, followed by a running buffer flow for 500 seconds at a constant flow rate of 100 μl/min (off-rate measurement). After each measurement, a 10 min pause was introduced to allow for complete dissociation of the analyte. Each interaction was recorded in triplicates. The signals (i.e. resonance unit (RU) values) of the interspots and a reference injection (i.e. injection of running buffer only) were subtracted from the RU traces obtained injecting human hCD33 (double-referencing). Dissociation constants (KD) were calculated from the globally fitted on- and off-rates using standard 1:1-Langmuir model.

[4] = biological target: T2, biotinylated extracellular domain of …; assay: SPR (Bruker Sierra SPR-32 Pro), hCD123 on IgG capture chip
Method: The binding affinities of selected multispecific ankyrin repeat proteins on recombinant targets were analyzed using ProteOn (BioRad) and Bruker Sierra SPR-32 Pro instruments. The measurements were performed according to standard procedures known to the person skilled in the art. For that, DARPin® protein #56 and DARPin® protein #57 of the invention were subcloned and expressed as described above into derivatives of the pQE30 (Qiagen) expression vectors, containing an N-terminal His-tag, two human serum album specific binding domains and CD70, CD123 and CD33 specific binding domains, followed by one CD3 specific binding domain.
Similarly, human target_hCD123 (SEQ ID NO: 88) was diluted in PBST (PBS, pH 7.4 containing 0.005% Tween 20®) and captured on a Bruker IgG Capture sensorchip to a level of around 177 resonance units (RU) using a Bruker Sierra SPR-32pro. The interaction of each tested ankyrin repeat protein and target_hCD123 was then measured by injecting 100 μl running buffer (PBS, pH 7.4 containing 0.005% Tween 200) containing three-fold serial dilutions of ankyrin repeat proteins covering a concentration range between 200 nM and 91 pM, followed by a running buffer flow for at least 1500 seconds at a constant flow rate of 25 μl/min (off-rate measurement). […] Each interaction was recorded in triplicates. […]

[5] = biological target: T3, extracellular domain of human CD70 (SEQ …); assay: SPR (ProteOn), hCD70-Fc-trimer captured on protein A/G chip
Method: Briefly, human target CD70 (SEQ ID NO: 89; hCD70-Fc-trimer, ACRO Biosystems) was diluted in PBST (PBS, pH 7.4 containing 0.005% Tween 20®) and captured on a PAGD200L protein A/G sensorchip (XanTec bioanalytics GmbH) to a level of around 36 resonance units (RU) using a ProteOn (BioRad). The interaction of each tested ankyrin repeat protein and human CD70-Fc-trimer was then measured by injecting 400 μl running buffer (PBS, pH 7.4 containing 0.005% Tween 20®) containing three-fold serial dilutions of ankyrin repeat proteins covering a concentration range between 600 nM and 7.4 nM, followed by a running buffer flow for 2700 seconds at a constant flow rate of 100 μl/min (off-rate measurement). The regeneration was performed using 30 μl of 10 mM glycine pH 2 and hCD70-Fc-trimer was reinjected to prepare the surface for the next measurement. Each interaction was recorded in triplicates. The signals (i.e. resonance unit (RU) values) of the interspots and a reference injection (i.e. injection of running buffer only) were subtracted from the RU traces obtained injecting the ankyrin repeat protein (double-referencing). Dissociation constants (KD) were calculated from the globally fitted on- and off-rates using standard 1:1-Langmuir model.

T5 sequence (P20138 18-364, one chain of several): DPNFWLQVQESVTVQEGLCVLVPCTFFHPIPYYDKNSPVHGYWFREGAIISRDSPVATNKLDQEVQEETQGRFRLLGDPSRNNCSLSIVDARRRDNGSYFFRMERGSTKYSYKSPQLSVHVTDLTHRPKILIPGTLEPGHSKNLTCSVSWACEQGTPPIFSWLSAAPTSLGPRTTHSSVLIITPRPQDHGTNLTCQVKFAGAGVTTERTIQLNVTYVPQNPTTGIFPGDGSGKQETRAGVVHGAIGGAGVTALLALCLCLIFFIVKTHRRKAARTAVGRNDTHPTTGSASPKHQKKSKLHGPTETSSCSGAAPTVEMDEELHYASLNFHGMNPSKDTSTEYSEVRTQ
T4 sequence (P02768 25-609 limits assumed): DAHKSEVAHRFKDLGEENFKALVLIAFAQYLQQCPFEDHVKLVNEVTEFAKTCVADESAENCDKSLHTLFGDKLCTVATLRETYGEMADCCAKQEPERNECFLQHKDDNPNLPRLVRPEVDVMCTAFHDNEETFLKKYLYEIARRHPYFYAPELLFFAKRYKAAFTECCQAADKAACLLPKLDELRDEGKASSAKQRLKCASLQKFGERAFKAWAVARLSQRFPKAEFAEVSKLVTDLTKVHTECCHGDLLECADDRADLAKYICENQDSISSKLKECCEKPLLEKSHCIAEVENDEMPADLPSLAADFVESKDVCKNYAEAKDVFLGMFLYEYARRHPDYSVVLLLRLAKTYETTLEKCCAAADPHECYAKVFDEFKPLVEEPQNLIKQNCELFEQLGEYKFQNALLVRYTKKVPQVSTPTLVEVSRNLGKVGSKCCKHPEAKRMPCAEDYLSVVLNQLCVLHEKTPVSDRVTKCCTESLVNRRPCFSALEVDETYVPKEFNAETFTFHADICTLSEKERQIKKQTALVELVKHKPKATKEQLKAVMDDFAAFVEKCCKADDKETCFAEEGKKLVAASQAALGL
T6 sequence (P20138 18-259 R69G): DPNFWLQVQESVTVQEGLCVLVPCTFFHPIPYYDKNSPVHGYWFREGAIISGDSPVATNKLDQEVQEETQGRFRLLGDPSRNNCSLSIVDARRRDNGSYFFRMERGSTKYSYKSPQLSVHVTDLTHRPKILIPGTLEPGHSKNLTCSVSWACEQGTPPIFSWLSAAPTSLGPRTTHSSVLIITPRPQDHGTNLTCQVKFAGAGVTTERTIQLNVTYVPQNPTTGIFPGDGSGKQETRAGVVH

Kd [1] [nM] | Kd (human serum albumin) [nM] | EC50 [2] [nM] | Kd [3] [nM] | Kd [4] [nM] | Kd [5] [nM] | Binder
24 | 120 | 0.26 | 5.1 | 0.056 | 0.61 | DARPin® protein #56 (designed binder, HSA-HSA-CD33-CD123-CD70-CD3; not shown: N-terminal His-tag) DLGKKLLEAARAGQDDEVRELLKAGADVNAKDYFSHTPLHLAARNGHLKIVEVLLKAGADVNAKDFAGKTPLHLAAADGHLEIVEVLLKAGADVNAQDIFGKTPADIAADAGHEDIAEVLQKAAGSPTPTPTTPTPTPTTPTPTPTGSDLGKKLLEAARAGQDDEVRELLKAGADVNAKDYFSHTPLHLAARNGHLKIVEVLLKAGADVNAKDFAGKTPLHLAAADGHLEIVEVLLKAGADVNAQDIFGKTPADIAADAGHEDIAEVLQKAAGSPTPTPTTPTPTPTTPTPTPTGSDLGVKLLLAAERGQLDEVRILLKAGADVNAKDIAEGYTPLHIAAYQGHLEIVEVLLKAGADVNAKDRYGKTPLHLAAIGGHLEIVEVLLKAGADVNAQDNKGSTPADLAADYGHQDIAEVLQKAAGSPTPTPTTPTPTPTTPTPTPTGSDLGKKLLEAALEGQLDEVRELLKAGADVNAKDQEGYTPLHLAAALGHLEIVEVLLKAGADVNAKDQIGRTPLHLAAYKGHLEIVEVLLKAGADVNAQDIIGQTPADLAAQRGHQDIAEVLQKAAGSPTPTPTTPTPTPTTPTPTPTGSDLGIKLLTAAYDGQLDEVRILLKAGADVNAKDLRGQTPLHYAAGLGHLEIVEVLLKAGADVNAKDLHGWTPLHLAAWSGHLEIVEVLLKAGADVNAQDVEGVTPADLAAVQGHQDIAEVLQKAAGSPTPTPTTPTPTPTTPTPTPTGSDLGQKLLEAAWAGQDDEVRELLKAGADVNAKNSRGWTPLHTAAQTGHLEIFEVLLKAGADVNAKNDKRVTPLHLAAALGHLEIVEVLLKAGADVNARDSWGTTPADLAAKYGHQDIAEVLQKAA
29 | 110 | 0.13 | 12 | 0.094 | 0.82 | DARPin® protein #57 (designed binder, HSA-HSA-CD70-CD123-CD33-CD3; not shown: N-terminal His-tag) DLGKKLLEAARAGQDDEVRELLKAGADVNAKDYFSHTPLHLAARNGHLKIVEVLLKAGADVNAKDFAGKTPLHLAAADGHLEIVEVLLKAGADVNAQDIFGKTPADIAADAGHEDIAEVLQKAAGSPTPTPTTPTPTPTTPTPTPTGSDLGKKLLEAARAGQDDEVRELLKAGADVNAKDYFSHTPLHLAARNGHLKIVEVLLKAGADVNAKDFAGKTPLHLAAADGHLEIVEVLLKAGADVNAQDIFGKTPADIAADAGHEDIAEVLQKAAGSPTPTPTTPTPTPTTPTPTPTGSDLGIKLLTAAYDGQLDEVRILLKAGADVNAKDLRGQTPLHYAAGLGHLEIVEVLLKAGADVNAKDLHGWTPLHLAAWSGHLEIVEVLLKAGADVNAQDVEGVTPADLAAVQGHQDIAEVLQKAAGSPTPTPTTPTPTPTTPTPTPTGSDLGKKLLQAALEGQLDEVRELLKAGADVNAKDIEGYTPLHLAAALGHLEIVEVLLKAGADVNAKDQIGRTPLHLAAYKGHLEIVEVLLKAGADVNAQDIIGQTPADLAAQRGHQDIAEVLQKAAGSPTPTPTTPTPTPTTPTPTPTGSDLGKKLLLAAERGQLDEVRILLKAGADVNAKDRAEGYTPLHIAAYQGHLEIVEVLLKAGADVNAKDRYGKTPLHLAAISGHLEIVEVLLKAGADVNAQDNKGSTPADLAADYGHQDIAEVLQKAAGSPTGSDLGQKLLEAAWAGQDDEVRELLKAGADVNAKNSRGWTPLHTAAQTGHLEIFEVLLKAGADVNAKNDKRVTPLHLAAALGHLEIVEVLLKAGADVNARDSWGTTPADLAAKYGHQDIAEVLQKAA
